T1: natural Bet v 1 (Betula verrucosa (Betula pendula), UniProt P15494 2-160)
T1 construct: Bought natural protein; also called nBet v 1
T1 chain: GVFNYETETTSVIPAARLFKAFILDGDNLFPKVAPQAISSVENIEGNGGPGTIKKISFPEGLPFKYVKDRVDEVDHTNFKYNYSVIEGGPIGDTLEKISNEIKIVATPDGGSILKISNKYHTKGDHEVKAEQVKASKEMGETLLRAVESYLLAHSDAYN

B1: H4H16987P (antibody, human IgG4 S228P, kappa, V domains shown)
VH: EVQLVESGGGLVQPGGSLRLSCAASGFTVSSNSMSWVRQAPGEGLEWVSVIFSGGITYYSDSVKGRFTISRHNSKNTLYLQMNSLRTEDTAVYYCARHSNWNFDAFDIWGQGTMVTVSS
VL: DIQMTQSPSSLSASVGDRVTITCRASQSFDTYLNWYQQKPGKAPNLLIYATSSLQSGVPSRFSGSGSGTDFTLTISSLQPEDFGTYYCQQSYSIPYTFGQGTKLEIKR
notes: Human IgG4; also called MAB4
B2: H4H16950P (antibody, human IgG4, V domains shown)
VH: QVQLVQSGAEVKKPGASVKVSCKTSGYTFTNYGITWVRQAPGQGLEWMGWISAYNGNTNYAQNVQGRVTMTTDTSTSTAYMEVRSLRSDDTAVYYCARRSSMLHFQHWGQGTLVTVSS
VL: DIVMTQSPDSLAVSLGERATINCKSSQHVLYDSSNENYLAWFQQKPGQPPKLLIYWASTRESGVPDRFSGSGSGTDFTLTISSLQAEDVAVYYCQQYSSAPYTFGQGTKLEIK
B3: H4H16946P (antibody, human IgG4, V domains shown)
VH: EVQLVESGGGLVQPGGSLRLSCVASGFTFSNYDMNWVRQAPGEGLEWISYISYSDHNIYYIDSVKGRFTISRDNAKNSLYLQMNSLRAEDTAIYYCAREALASSSFDYWGQGTLVTVSS
VL: EIVMTQSPATLSVSPGERVTLSCRASQSVSGNLAWYQQKPGQAPRLLIYSASTGATGVPARFSGSGSGTEFTLTISSLQSEDFALYYCQQYNKWPRTIGQGTKVEIK
B4: H4H16971P (antibody, human IgG4, V domains shown)
VH: QVQLVESGGGVVQPGRSLRLSCAASGFTFSSYGLHWVRQAPGKGLEWVAVISDDGSYKFYADSMKGRFTISRDNSKNTLYLQMNSLRAEDTAVYYCAKDRGRSGWYYFDYWGQGTLVTVSS
VL: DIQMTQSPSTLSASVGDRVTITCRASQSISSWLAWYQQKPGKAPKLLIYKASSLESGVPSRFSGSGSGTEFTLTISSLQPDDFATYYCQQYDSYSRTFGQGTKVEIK
B5: H4H16967P (antibody, human IgG4, V domains shown)
VH: QVQLVESGGGVVQPGRSLRLSCAASGFTFSSYGMHWFRQAPGKGLEWVGVIWSDGSDKKYADSVKGRFTISRDNSKNTLYLLMNSLRDDDTAVYHCAREGGFLYSSSSHFDYWGQGTLVTVSS
VL: AIQMTQSPSSLSASVGDRVTITCRTSQGIRNDLGWYQQKPGKAPKLLIFAASSLQSGVPSRFSGSGSGTDFTLTISSLQPEDFAIYYCLQDYKYPFTFGGGTKVEIK
B6: H4H16991P (antibody, human IgG4, V domains shown)
VH: QVQLVQSGAEVRKPGASVKVSCKASGYTFTGYYLHWVRQAPGQGLEWMGLINPNTGGTNFAQKFQGRVTMTRDSSISAAYMELSRLRSDDTAVYYCARQHWNRYFDNWGQGTLVTVSS
VL: DIQMTQSPSTLSASVGDRVTITCRASQSVGNWLAWYQQKPGKAPKLLIQEASSIESGVPSRFSGSGSGTEFTLIVSSLQPDDFATYYCQQYNSYSWTFGHGTKVEIK
B7: H4H16943P (antibody, human IgG4, V domains shown)
VH: EVQLVESGGGLVQPGGSLRLSCTASGFMSSMYWMSWVRQAPGKGLEWVSNIKQDGTEKNYVESVKGRFTISRDNAKNSLYLQINSLRGEDTAVYYCARDLYSSSSGYYYYGLDVWGQGTTVTVSS
VL: DIVMTQSPLSLPVTPGEPASISCRSSQSLLHSNKYNYLDWYLQKPGQSPQLLIYLSSNRASGVPDRFSGSGSGTEFTLKISRVEAEDVGIYYCMQALHTPLTFGGGTKVEIK
notes: Fully human antibody
B8: H4H16960P (antibody, human IgG4, V domains shown)
VH: QLQLQESGPGLVRPSETLSLTCTVSGGSISSSNYWWGWIRQPPGKGLEWIGSIYYSGITYYNPSLKSRVTISADTSKDQFSLKLRSVTAADTAVYYCAKLEWLRLDFWGQGTTVTVSS
VL: DIQMTQSPSSVSASVGDRVTITCRASQGISSWLVWYQQKPGKVPKLLIYAASSLQSGVPLRFSGSGSGTDFTLTISSLQPEDFATYYCQQAKSFPLTFGQGTRLEIK
B9: H4H16979P (antibody, human IgG4, V domains shown)
VH: QVQLVQSGAEVKKPGASVKVSCKASGYTFIAYYLHWVRQAPGQGLEWMGLLNPYTGGSYYTQKFQGRVTMTRDTSIDTAYMELNSLRSDDTAIYYCARDKRSYYIPYAFEIWGQGTMVTVSS
VL: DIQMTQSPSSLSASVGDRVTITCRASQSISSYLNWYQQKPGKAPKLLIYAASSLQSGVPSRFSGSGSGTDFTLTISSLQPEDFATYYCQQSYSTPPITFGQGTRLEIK

One experiment addresses T1, natural Bet v 1. Put plainly: SPR Biacore 4000, mAb captured on anti-human Fc, 37C.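 Note: kinetic rate constants from SPR sensorgrams fitted to a 1:1 model with mass transport limitation, HBS-ET buffer pH 7.4, KD and t½ derived from the rate constants.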 In general terms: In SPR one partner is held on a chip, and binding of the other changes the refractive index at the surface.
Description: Equilibrium dissociation constants (KD) for natural Bet v 1 binding to purified anti-Bet v 1 monoclonal antibodies were determined using a real-time surface plasmon resonance biosensor (SPR-Biacore) on a Biacore 4000 instrument. All binding studies were performed in 10 mM HEPES, 150 mM NaCl, 3 mM EDTA, and 0.05% v/v surfactant Tween-20, pH 7.4 (HBS-ET) running buffer at 25° C. and 37° C. […] Association (kₐ) and dissociation (kd) rate constants were determined by fitting the real-time binding sensorgrams to a 1:1 binding model with mass transport limitation using Scrubber 2.0c curve-fitting software. Binding dissociation equilibrium constants (KD) and dissociative half-lives (t½) were calculated from the kinetic rate constants as:
In general, Kd refers to the equilibrium constant for the complex coming apart. A high value points to a looser complex. By koff is commonly meant the rate constant with which the complex falls apart. Read a low koff as a long-lived complex. A word on the kon: it is the rate constant with which the complex forms. Read a high kon as faster complex formation. By t½ is commonly meant how long it takes for the measured level to halve. Low values mean fast loss, high ones slow loss. As for B1, the “100 nM natural Bet v 1 Bound (RU)” value was found to be 74 RU, the Kd amounted to 9.16 nM, the koff turned out to be 0.00477 s⁻¹ and the kon turned out to be 520000 M⁻¹ s⁻¹. The same molecule returned a t½ of 2.4 min.
B2: the “100 nM natural Bet v 1 Bound (RU)” value was determined as 76 RU, binding was characterised by a dissociation constant (Kd) of 8.57 nM, the koff was 0.00121 s⁻¹ and the kon worked out at 141000 M⁻¹ s⁻¹. For the same molecule, the t½ turned out to be 10 min.
Taken in the same sequence, the figures for B3 were 93 RU, 2.08 nM, 0.000601 s⁻¹, 289000 M⁻¹ s⁻¹ and 19 min.
Consider B4, for which the “100 nM natural Bet v 1 Bound (RU)” value stood at 66 RU, the Kd came to 6.93 nM, the koff stood at 0.00244 s⁻¹ and the kon stood at 352000 M⁻¹ s⁻¹. In addition, the t½ is 4.7 min.
The corresponding values for B5 are 45 RU, 14.3 nM, 0.000719 s⁻¹, 50400 M⁻¹ s⁻¹ and 16 min.
Taken in the same sequence, the figures for B6 were 66 RU, 2.16 nM, 0.00108 s⁻¹, 500000 M⁻¹ s⁻¹ and 11 min.
As for B7, the “100 nM natural Bet v 1 Bound (RU)” value stood at 88 RU; the affinity, expressed as Kd, was 4.89 nM; the off-rate constant (koff) stood at 0.00127 s⁻¹; the kon is 260000 M⁻¹ s⁻¹. The molecule further showed a t½ of 9.1 min.
The corresponding values for B8 are 65 RU, 2.54 nM, 0.00168 s⁻¹, 662000 M⁻¹ s⁻¹ and 6.8 min.
B9: the “100 nM natural Bet v 1 Bound (RU)” value was 52 RU, the Kd came to 1.8 nM, the koff amounted to 0.000616 s⁻¹ and the kon stood at 342000 M⁻¹ s⁻¹. This molecule came in with a t½ of 19 min.

Another experiment addresses T1, natural Bet v 1. Briefly: SPR Biacore 4000, mAb captured on anti-human Fc, 25C.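 Note: purified anti-Bet v 1 mAbs probed with natural Bet v 1 in HBS-ET buffer (HEPES, NaCl, EDTA, Tween-20) at pH 7.4.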
On to B1, for which the “100 nM natural Bet v 1 Bound (RU)” value stood at 61 RU, binding was put at a Kd of 2.77 nM, the koff turned out to be 0.00114 s⁻¹ and the kon is 410000 M⁻¹ s⁻¹. The molecule also came in with a t½ of 10 min.
The corresponding values for B2 are 58 RU, 5.23 nM, 0.000503 s⁻¹, 96100 M⁻¹ s⁻¹ and 23 min.
Turning to B3, the “100 nM natural Bet v 1 Bound (RU)” value stood at 74 RU, binding was put at a Kd of 0.982 nM, the koff stood at 0.000201 s⁻¹ and the kon is 205000 M⁻¹ s⁻¹. For the same molecule, the t½ came out at 58 min.
As for B4, the “100 nM natural Bet v 1 Bound (RU)” value was 57 RU, the Kd turned out to be 3.26 nM, the koff was determined as 0.000781 s⁻¹ and the kon worked out at 240000 M⁻¹ s⁻¹. In addition, the t½ worked out at 15 min.
In the case of B5, the “100 nM natural Bet v 1 Bound (RU)” value came out at 27 RU, the Kd was determined as 3.98 nM, the koff stood at 0.000149 s⁻¹ and the kon is 37600 M⁻¹ s⁻¹. The same molecule displayed a t½ of 77 min.
The corresponding values for B6 are 57 RU, 1.06 nM, 0.000312 s⁻¹, 295000 M⁻¹ s⁻¹ and 37 min.
Taken in the same sequence, the figures for B7 were 71 RU, 1.4 nM, 0.00023 s⁻¹, 164000 M⁻¹ s⁻¹ and 50 min.
B8: the “100 nM natural Bet v 1 Bound (RU)” value is 57 RU; the affinity, expressed as Kd, was 1.64 nM; the koff came out at 0.00069 s⁻¹; the kon was 422000 M⁻¹ s⁻¹. In addition, the t½ stood at 17 min.
For the molecule B9, the “100 nM natural Bet v 1 Bound (RU)” value came out at 41 RU, the Kd came out at 1.21 nM, the koff was 0.000278 s⁻¹ and the kon is 230000 M⁻¹ s⁻¹. Further, the t½ was 42 min.

The record behind these values is patent publication US20180346555A1 (Regeneron, published 2018).
